# Assay results from US20170037124A1 (Regeneron, published 2017).
# T1: human ANGPTL8 peptide (hANGPTL8 peptide, SEQ ID NO: 337) (human)
# T1 construct: also called N-terminal region ANGPTL8 peptide
# T1 peptide: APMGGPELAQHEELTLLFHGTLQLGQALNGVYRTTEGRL
# T2: peptide from the N-terminal coiled-coil region of human ANGPTL3 (hANGPTL3 peptide, SEQ ID NO: 338) (human)
# T2 construct: also called hANGPTL3 shift peptide
# T2 peptide: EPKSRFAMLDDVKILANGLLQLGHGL
# T3: peptide from the N-terminal coiled-coil region of human ANGPTL4 (hANGPTL4 peptide, SEQ ID NO: 339) (human)
# T3 peptide: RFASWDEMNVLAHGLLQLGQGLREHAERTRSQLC
# T4: human ANGPTL8 expressed with C-terminal mouse IgG2a Fc tag (hANGPTL8-mFc; SEQ ID NO: 340) (human)
# T4 construct: also called Angiopoietin-like protein 8
# T4 chain: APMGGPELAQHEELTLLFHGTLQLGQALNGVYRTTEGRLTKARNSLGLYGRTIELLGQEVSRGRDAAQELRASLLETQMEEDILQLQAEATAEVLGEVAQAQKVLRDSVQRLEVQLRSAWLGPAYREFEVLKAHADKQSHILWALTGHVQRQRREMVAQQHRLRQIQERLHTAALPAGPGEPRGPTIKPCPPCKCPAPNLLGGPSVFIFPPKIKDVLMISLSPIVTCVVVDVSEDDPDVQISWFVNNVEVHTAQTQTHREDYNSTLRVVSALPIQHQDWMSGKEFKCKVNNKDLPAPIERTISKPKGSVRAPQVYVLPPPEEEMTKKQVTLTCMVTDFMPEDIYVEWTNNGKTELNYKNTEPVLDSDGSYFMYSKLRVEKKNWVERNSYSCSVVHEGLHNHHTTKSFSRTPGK
# T5: monkey ANGPTL8 expressed with C-terminal mouse IgG2a Fc tag (MfANGPTL8-mFc; SEQ ID NO: 341) (cynomolgus monkey)
# T5 construct: also called cynomolgus monkey ANGPTL8
# T5 chain: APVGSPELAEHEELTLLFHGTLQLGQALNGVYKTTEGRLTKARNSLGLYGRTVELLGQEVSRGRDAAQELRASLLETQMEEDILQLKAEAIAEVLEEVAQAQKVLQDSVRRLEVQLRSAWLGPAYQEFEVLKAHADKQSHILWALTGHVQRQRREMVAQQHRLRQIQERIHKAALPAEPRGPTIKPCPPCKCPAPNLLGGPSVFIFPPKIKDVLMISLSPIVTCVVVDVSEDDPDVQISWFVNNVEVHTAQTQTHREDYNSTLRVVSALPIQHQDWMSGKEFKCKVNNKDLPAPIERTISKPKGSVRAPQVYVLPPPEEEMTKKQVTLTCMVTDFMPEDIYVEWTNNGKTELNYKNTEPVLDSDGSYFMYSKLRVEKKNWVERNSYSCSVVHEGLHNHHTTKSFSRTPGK
# Key:
# [1] = biological target: T1, human ANGPTL8 peptide (hANGPTL8 …); test: SPR, captured mAb, 500 nM peptide, 25C
# Method: (§1) The assay utilized a format where ANGPTL8 antibodies were captured on the sensor surface and peptides were injected over the antibody surface. Peptides from the N-terminal coiled-coil region of human ANGPTL3 (hANGPTL3 peptide, SEQ ID NO: 338) and human ANGPTL4 (hANGPTL4 peptide, SEQ ID NO: 339) were also included as controls. Also included was a control antibody (H4H268P from US2011/0159015A1) that binds to the ANGPTL4 peptide and a negative isotype control antibody. All binding studies were performed in 10 mM HEPES pH 7.4, 150 mM NaCl, 3 mM EDTA, and 0.05% v/v Surfactant Tween-20 (HBS-ET running buffer) at 25° C. The HCA sensor surface was derivatized via amine coupling to a monoclonal mouse anti-human Fc antibody (GE, # BR-1008-39), and to this surface was captured approximately 1000 RU of each ANGPTL8 antibody or control antibody. Peptide stock solutions were diluted in HBS-ET running buffer to 500 nM and injected over the antibody-captured surfaces for 4 minutes at a flow rate of 30 μL/minute followed by the dissociation of bound peptide in HBS-ET running buffer for 10 minutes.
# (§2) Dissociative half-lives (t½) were calculated from kd as: […]
# [2] = biological target: T2, peptide from the N-terminal coiled-coil …; test: SPR, captured mAb, 500 nM peptide, 25C
# Method: as §1, §2
# [3] = biological target: T3, peptide from the N-terminal coiled-coil …; test: SPR, captured mAb, 500 nM peptide, 25C
# Method: as §1, §2
# [4] = biological target: T6, anti-mFc (AMC) Octet biosensor, blank; test: BLI Octet, blank AMC sensor, 100 nM mAb, 25C
# T6 construct: Sensor without captured protein, used as blank; also called Blank AMC Sensor
# Method: (§3) Binding of ANGPTL8 antibodies to human and monkey ANGPTL8 proteins was investigated using Bio-layer Interferometry with an Octet HTX biosensor platform (ForteBio, A Division of Pall Life Sciences). All experiments were performed at 25° C. in 10 mM HEPES pH 7.4, 150 mM NaCl, 0.05% v/v Surfactant Tween-20, and 1 mg/ml BSA with the reaction multiwell plate agitated at 1000 rpm. Approximately 1.6 nm of human ANGPTL8 produced with a C-terminal mouse IgG2a Fc tag (hANGPTL8-mFc; SEQ ID NO: 340) or cynomolgus monkey ANGPTL8 produced with a C-terminal mouse IgG2a Fc tag (MfANGPTL8-mFc; SEQ ID NO: 341) was captured onto anti-mFc (AMC) Octet biosensors by submerging the sensors into wells containing 10 μg/mL of each protein for 4 minutes. Under the same conditions a negative control protein with the same mFc tag (hLDLR-mFc) was also coupled to the AMC sensor. All four sensors, […] and one blank, were then submerged into wells containing 100 nM of different ANGPTL8 monoclonal antibodies or an isotype control for 4 minutes.
# [5] = biological target: T4, human ANGPTL8 expressed with C-terminal …; test: BLI Octet, captured antigen, 100 nM mAb, 25C
# Method: as §3
# [6] = biological target: T5, monkey ANGPTL8 expressed with …; test: BLI Octet, captured antigen, 100 nM mAb, 25C
# Method: as §3
Binder,500 nM hANGPTL8 peptide Bound (RU) [1],binding result [1],500 nM hANGPTL3 peptide Bound (RU) [2],binding result [2],500 nM hAngPTL4 peptide Bound (RU) [3],binding result [3],mAb Binding Response (nm) [4],mAb Binding Response (nm) [5],mAb Binding Response (nm) [6]
"H4H15357P2 (antibody, human IgG4, V domains shown, H4H prefix: human IgG4 Fc) VH: EVQLVESGGGLVKPGGSLRLSCTASGFTFGNAWMSWVRQAPGKGLEWVGLIKGKTDGGTTNYAAPVKGRFTISRDDSKNTLYLHLNSLRTEDTALYYCTTDQVELRQYYYYGLDVWGQGTTVTVSS VL: not shown",0 RU,no binding (tested: <9 RU at 500 nM peptide),0 RU,no binding (tested: <9 RU at 500 nM peptide),0 RU,no binding (tested: <9 RU at 500 nM peptide),0.02 nm,0.13 nm,0.08 nm
"H4H15361P2 (antibody, human IgG4, V domains shown, H4H prefix: human IgG4 Fc) VH: EVQLVESGGGLVQPGRSLRLSCTASGFSFGDNAMGWVRQAPGKGLEWVSFIRRKASGGTTEYAASVKGRFTISRDDSKSIAYLQMNSLKTEDTGVYYCTRGGAVYGYWGQGTLVTVSS VL: not shown",4 RU,no binding (tested: <9 RU at 500 nM peptide),0 RU,no binding (tested: <9 RU at 500 nM peptide),0 RU,no binding (tested: <9 RU at 500 nM peptide),0.02 nm,0.2 nm,0.21 nm
"H4H15363P2 (antibody, human IgG4, V domains shown, H4H prefix: human IgG4 Fc) VH: EVQLVESGGGLVQPGGSLRLSCAASGFTFSNYAMSWVRQVPGKGLEWVSTISGSGGSTYYADSVKGRFTISRDNSKNSLYLQMNSLRAEDTAVYYCAKLVRGVIGWFDPWGQGTLVTVSS VL: not shown",0 RU,no binding (tested: <9 RU at 500 nM peptide),0 RU,no binding (tested: <9 RU at 500 nM peptide),0 RU,no binding (tested: <9 RU at 500 nM peptide),0.02 nm,0.25 nm,0.26 nm
"H4H15354P2 (antibody, human IgG4, V domains shown, H4H prefix: human IgG4 Fc) VH: QVQLVESGGGVVQPGRSLRLSCTASGFTFNNYGIHWVRQAPGKGLEWVAVISYDGSNKFYAESVRGRFTISRDNSRNTLFLQMISLRGEDSAVYYCAKDRPYYDILTAHYPSDYYFYAMDVWGHGTTVTVSS VL: not shown",0 RU,no binding (tested: <9 RU at 500 nM peptide),0 RU,no binding (tested: <9 RU at 500 nM peptide),0 RU,no binding (tested: <9 RU at 500 nM peptide),0.02 nm,0.05 nm,0.03 nm
"H4H15355P2 (antibody, human IgG4, V domains shown, H4H prefix: human IgG4 Fc) VH: QVQLVESGGGVVQPGRSLRLSCAASGFTFTNYAMHWVRQAPGKGLEWVAVISYDGSHTYFADSVKGRFTMSRDNSKNTISLQMNSLRPEDTAVYFCAGGGATTWFYFYGLDVWGQGTTVTVSS VL: not shown",0 RU,no binding (tested: <9 RU at 500 nM peptide),0 RU,no binding (tested: <9 RU at 500 nM peptide),0 RU,no binding (tested: <9 RU at 500 nM peptide),0.03 nm,0.15 nm,0.13 nm
"H4H15335P (antibody, human IgG4, V domains shown, H4H prefix: human IgG4 Fc) VH: QVQLVESGGGVVQPGRSLRLSCAASGFTFNNYGIHWVRQAPGKGLEWVAVISYDESNKYYADSVKGRFTISRDNSKNTLYLQMNSLRAEDTAVYYCAKDIRIAARRHYYYYGMDVWGQGTTVTVSS VL: DIQMTQSPSSVSASVGDRVTITCRASQGISRWLAWYQQKPGKAPKLLIYAASSLESGVPARFSGSGSGTDFTLTISSLQPEDFATYYCQQANSFPITFGPGTKVDIK",0 RU,no binding (tested: <9 RU at 500 nM peptide),-1 RU,–,1 RU,no binding (tested: <9 RU at 500 nM peptide),0.01 nm,0.06 nm,0.04 nm
"H4H15347P (antibody, human IgG4, V domains shown, H4H prefix: human IgG4 Fc) VH: EVQLVESGGGLVQPGGSLRLSCAASGFTFRNYAMNWARQAPGKGLEWVSGITGSGGATYYADSVKGRFTISRENSKNTLFLQMDTLRAEDTAVYYCAKDRRYFPTSGGPQWGQGTLVTVSS VL: DIVMTQSPLSLPVTPGEPASISCRSSRSLLHSSGYNYLDWYLQKPGQSPQLLLYLGSNRASGVPDRFSGSGSGTYFTLKISRVDAEDVGVYYCMQALQTPWTFGQGTKVEIK",0 RU,no binding (tested: <9 RU at 500 nM peptide),-1 RU,–,0 RU,no binding (tested: <9 RU at 500 nM peptide),0.03 nm,0.25 nm,0.29 nm
